Measured values as given in PMC11252911 (Proceedings of the National Academy of Sciences of the …, 2024).

B1: Pwl1 (natural protein)
chain: RKWTNKVIYNDKGEREGSISIRKGAEGDFNCGPGYPGGPDRMVRVHEDNGNIRGMPPGYRLGPDDKEDKRDNQYYSRNGYHVGDGPAEYQNHGGGQWGDGYYGPPGEITNQHGKRQGDQGCHIM

Legend:
Assay in all cases: ITC
[1] = target: Pwl2 without the signal peptide (residues 22 to 145) (Magnaporthe oryzae)
[2] = target: Pwl4 (Magnaporthe oryzae)
[3] = target: T1, HMA domain of OsHIPP43 (residues 26 to 101) (rice, UniProt Q8LJL3 26-101); conditions: both partners purified
T1 construct: also called Os01g0507700
T1 sequence (looked up): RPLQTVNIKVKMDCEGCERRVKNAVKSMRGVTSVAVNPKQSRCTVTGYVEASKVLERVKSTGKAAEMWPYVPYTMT

Row | Molecule | Kd [1] [nM] | dH [1] [kcal/mol] | Kd [2] [nM] | Kd [3] [nM]
1 | HMA domain of OsHIPP43 (residues 26 to 101) (from UniProt Q8LJL3 26-101) (domain or fragment) | 191 | -67.6 | 124 | –
2 | B1 | – | – | – | 147
